According to publication doi:10.1101/2022.06.14.496144:

Columns and labels:
[1] = target: GlOCPX E25C mutant (Gloeobacter kilaueensis JS1); assay: SEC
[2] = target: Gloeobacter kilaueensis JS1 Orange Carotenoid Protein clade X (GlOCPX), wild type (Gloeobacter kilaueensis JS1); assay: SEC-MALS
[3] = target: Gloeobacter kilaueensis JS1 Orange Carotenoid Protein clade X (GlOCPX), wild type (Gloeobacter kilaueensis JS1); assay: SEC

Row | dimer/monomer ratio [1] [%] | stoichiometry N [2] | dimer/monomer ratio [3] [%] | Substance
1 | 25 |  |  | GlOCPX E25C mutant (natural protein)
2 |  | 2 | 5 | Gloeobacter kilaueensis JS1 Orange Carotenoid Protein clade X (GlOCPX), wild type (natural protein)
